The results in this text go back to the supplement of paper PMC10065799, “High-throughput profiling of sequence recognition by tyrosine kinases and SH2 domains using bacterial peptide display” (eLife, 2023).

One data set concerns AncSZ. Nature of the data set: phosphorylation enrichment, bacterial display (enrichment ratio); higher = better substrate or ligand; peptides without Tyr show the background.
A further data set concerns the target MERTK (UniProt Q12866). The description is as above.
The next data set addresses FGFR1 (UniProt P11362). The description is as above.
In the next data set the target is Fyn (UniProt P06241). Described as above.
A further data set deals with Fer (mouse). The data set is described as above.
The next data set addresses Fes (UniProt P07332). Described as above.
The test system of the next data set is c-Abl (mouse). The description is as above.
The next data set concerns the target Hck (UniProt P08631). Described as above.
For another data set, the target named is Jak2 (UniProt O60674). Described as above.
The subject of the next data set is c-Src. The data set is described as above.
The next data set concerns the target EPHB1 (UniProt P54762). Described as above.
A further data set addresses EPHB2 (UniProt P29323). The description is as above.
The target in another data set is FGFR3 (UniProt P22607). The description is as above.
A further data set concerns the target SHP2-C SH2. Put plainly: SH2 binding enrichment of the phosphorylated peptide, bacterial display (enrichment ratio); higher = better substrate or ligand; peptides without Tyr show the background.
In the next data set the target is Grb2 SH2 (UniProt P62993). The description is as above.
For a further data set, the target named is c-Src SH2. The description is as above.
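Throughout, for SH2 binding enrichment of the phosphorylated peptide, bacterial display: peptide library displayed on the E. coli surface as eCPX fusions, selected cells deep-sequenced, score is each peptide's frequency after selection divided by its frequency in the input.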
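Throughout, for phosphorylation enrichment, bacterial display: 11-residue human phosphosite peptides and single-mutation variants displayed on the E. coli surface, counted by deep sequencing, each peptide's frequency after selection divided by its frequency in the unselected input library; frequency after pTyr selection over input frequency; kinase dosed for 20-30% of maximal phosphorylation in three min.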

Sequence of Fyn (P06241 whole entry, looked up): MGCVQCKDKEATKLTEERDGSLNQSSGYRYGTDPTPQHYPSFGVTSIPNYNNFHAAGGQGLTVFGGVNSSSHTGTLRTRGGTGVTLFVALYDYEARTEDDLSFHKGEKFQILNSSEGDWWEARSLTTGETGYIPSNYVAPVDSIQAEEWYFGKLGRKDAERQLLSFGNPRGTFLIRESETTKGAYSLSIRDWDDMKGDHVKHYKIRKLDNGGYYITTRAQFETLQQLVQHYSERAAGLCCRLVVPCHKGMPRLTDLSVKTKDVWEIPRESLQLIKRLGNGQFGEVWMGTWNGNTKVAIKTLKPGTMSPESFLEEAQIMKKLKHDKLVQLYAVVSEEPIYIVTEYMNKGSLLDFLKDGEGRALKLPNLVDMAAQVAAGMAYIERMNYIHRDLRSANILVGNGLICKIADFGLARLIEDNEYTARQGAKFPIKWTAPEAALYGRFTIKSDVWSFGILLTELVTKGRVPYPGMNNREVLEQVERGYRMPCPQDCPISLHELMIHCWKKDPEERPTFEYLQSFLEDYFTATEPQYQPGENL
Sequence of EPHB1 (P54762 whole entry, looked up): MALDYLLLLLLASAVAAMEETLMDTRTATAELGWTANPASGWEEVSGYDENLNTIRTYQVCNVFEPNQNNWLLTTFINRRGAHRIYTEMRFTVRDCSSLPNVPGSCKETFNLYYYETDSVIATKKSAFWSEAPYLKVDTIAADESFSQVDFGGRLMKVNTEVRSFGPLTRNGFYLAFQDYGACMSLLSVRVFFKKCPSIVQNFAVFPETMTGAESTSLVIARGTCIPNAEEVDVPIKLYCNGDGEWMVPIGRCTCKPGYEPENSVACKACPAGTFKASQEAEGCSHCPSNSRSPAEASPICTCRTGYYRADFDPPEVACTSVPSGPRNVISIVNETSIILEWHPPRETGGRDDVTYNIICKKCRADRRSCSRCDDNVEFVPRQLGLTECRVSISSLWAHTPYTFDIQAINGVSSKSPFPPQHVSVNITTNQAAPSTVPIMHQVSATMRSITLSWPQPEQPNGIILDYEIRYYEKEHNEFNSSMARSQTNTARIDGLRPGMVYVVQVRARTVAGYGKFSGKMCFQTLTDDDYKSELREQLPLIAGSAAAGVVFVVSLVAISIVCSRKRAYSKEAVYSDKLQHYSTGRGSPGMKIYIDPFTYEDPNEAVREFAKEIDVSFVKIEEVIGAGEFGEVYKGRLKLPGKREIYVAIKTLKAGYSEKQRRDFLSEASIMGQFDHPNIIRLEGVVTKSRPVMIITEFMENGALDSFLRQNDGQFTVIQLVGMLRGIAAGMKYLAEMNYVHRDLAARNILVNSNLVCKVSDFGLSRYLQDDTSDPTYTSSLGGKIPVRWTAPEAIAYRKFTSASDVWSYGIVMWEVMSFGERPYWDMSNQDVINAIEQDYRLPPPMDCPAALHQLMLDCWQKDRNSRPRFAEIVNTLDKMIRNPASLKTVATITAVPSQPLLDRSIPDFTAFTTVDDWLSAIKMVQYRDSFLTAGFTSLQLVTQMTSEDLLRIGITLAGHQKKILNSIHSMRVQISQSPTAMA
Sequence of EPHB2 (P29323 whole entry, looked up): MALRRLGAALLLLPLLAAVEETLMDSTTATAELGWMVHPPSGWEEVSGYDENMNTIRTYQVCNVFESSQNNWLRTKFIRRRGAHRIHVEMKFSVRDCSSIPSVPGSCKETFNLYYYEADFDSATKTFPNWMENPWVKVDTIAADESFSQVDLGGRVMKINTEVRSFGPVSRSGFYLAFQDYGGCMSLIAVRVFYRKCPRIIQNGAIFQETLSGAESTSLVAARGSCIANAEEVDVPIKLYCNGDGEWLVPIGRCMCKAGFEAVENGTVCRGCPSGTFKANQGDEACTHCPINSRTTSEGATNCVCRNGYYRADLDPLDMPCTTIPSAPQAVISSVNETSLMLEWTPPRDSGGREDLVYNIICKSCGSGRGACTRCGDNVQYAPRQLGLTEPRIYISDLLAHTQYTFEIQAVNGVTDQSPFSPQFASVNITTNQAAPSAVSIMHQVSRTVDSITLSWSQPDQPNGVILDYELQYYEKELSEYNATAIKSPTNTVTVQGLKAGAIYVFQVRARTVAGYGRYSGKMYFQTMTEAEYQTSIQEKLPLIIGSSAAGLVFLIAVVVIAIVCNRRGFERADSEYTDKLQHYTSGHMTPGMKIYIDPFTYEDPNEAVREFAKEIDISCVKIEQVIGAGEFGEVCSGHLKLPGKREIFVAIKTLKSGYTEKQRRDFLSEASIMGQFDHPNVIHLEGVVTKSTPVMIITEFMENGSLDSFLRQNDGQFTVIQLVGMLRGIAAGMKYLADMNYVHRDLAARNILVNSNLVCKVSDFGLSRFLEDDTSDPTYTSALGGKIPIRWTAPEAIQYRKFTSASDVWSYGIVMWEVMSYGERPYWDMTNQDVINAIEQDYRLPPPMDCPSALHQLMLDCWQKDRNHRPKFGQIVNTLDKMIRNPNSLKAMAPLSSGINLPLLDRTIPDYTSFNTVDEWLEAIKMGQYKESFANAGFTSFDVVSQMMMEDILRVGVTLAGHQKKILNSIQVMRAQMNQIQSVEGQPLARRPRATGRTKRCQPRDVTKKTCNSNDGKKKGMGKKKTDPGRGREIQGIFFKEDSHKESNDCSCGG
Sequence of Fes (P07332 whole entry, looked up): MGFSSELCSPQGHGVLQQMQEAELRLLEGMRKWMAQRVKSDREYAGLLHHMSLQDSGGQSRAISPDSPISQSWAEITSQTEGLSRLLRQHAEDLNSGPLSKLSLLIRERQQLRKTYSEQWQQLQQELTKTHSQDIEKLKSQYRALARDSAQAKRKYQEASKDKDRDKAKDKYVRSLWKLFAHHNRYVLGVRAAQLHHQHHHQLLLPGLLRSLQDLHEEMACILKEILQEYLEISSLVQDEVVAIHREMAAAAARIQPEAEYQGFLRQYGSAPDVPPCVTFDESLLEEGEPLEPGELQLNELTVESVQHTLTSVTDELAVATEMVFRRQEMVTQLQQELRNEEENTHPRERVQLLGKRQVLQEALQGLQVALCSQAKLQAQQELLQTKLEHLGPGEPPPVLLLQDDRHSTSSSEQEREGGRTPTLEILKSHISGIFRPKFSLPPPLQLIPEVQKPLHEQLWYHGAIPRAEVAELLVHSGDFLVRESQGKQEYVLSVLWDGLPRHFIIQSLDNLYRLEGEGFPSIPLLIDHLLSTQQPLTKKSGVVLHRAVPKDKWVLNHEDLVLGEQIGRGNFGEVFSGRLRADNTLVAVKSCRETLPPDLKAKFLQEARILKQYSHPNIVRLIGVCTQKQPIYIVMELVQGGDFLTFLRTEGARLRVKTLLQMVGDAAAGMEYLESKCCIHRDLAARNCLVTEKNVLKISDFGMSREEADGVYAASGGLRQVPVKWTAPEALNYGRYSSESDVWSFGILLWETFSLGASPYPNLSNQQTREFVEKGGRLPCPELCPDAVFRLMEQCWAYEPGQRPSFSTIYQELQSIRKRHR
Sequence of Jak2 (O60674 whole entry, looked up): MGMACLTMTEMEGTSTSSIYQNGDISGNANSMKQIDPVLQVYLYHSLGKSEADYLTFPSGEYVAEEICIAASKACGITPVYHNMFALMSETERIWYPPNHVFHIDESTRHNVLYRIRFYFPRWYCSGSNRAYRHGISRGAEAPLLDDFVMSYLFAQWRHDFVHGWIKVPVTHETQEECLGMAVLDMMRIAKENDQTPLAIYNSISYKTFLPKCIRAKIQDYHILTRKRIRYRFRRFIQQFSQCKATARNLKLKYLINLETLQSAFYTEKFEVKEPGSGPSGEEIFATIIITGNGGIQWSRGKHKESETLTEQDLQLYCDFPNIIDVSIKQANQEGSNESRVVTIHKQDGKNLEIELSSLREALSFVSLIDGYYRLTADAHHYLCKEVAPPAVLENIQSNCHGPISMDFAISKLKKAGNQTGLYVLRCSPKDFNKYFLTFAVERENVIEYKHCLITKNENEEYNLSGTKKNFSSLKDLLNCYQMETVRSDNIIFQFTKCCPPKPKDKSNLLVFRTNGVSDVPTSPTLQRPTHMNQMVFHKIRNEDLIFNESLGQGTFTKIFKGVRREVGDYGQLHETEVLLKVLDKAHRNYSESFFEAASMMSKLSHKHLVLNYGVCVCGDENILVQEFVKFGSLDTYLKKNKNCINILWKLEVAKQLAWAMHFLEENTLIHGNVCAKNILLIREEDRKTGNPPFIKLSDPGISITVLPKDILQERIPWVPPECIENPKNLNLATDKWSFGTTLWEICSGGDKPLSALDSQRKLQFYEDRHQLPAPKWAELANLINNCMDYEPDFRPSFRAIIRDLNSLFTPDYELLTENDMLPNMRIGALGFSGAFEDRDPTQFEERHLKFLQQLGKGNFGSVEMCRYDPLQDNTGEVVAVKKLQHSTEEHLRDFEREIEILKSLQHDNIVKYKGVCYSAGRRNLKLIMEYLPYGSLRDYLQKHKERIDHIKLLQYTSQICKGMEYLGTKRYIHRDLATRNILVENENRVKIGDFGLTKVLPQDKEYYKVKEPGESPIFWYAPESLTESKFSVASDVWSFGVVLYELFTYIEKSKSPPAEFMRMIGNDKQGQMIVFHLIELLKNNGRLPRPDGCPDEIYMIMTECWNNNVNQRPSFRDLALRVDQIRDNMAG
Sequence of Hck (P08631 whole entry, looked up): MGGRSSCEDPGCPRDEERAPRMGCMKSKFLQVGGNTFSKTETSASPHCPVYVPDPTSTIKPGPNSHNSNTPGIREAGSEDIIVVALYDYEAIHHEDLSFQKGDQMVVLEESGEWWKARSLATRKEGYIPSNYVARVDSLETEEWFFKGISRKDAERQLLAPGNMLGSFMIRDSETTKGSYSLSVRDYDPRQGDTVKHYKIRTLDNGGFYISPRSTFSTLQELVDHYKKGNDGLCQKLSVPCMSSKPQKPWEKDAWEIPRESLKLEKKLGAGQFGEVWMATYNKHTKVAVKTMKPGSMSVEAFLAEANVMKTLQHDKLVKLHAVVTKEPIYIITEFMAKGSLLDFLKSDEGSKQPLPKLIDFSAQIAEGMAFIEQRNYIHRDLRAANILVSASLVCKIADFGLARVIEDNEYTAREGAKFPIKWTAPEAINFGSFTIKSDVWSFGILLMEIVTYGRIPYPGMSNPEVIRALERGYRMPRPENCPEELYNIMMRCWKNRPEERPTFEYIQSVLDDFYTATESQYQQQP

For the sequence NTGVYYDLYGG [PTPN11_Y63_D61V], the phosphorylation enrichment in the data set with AncSZ worked out at 1.88; in the data set with MERTK, 7.75; in the data set with FGFR1, 13.7; in the data set with Fyn it was 6.07; with Fer (mouse), 2.49; with Fes it was 1.18. The phosphorylation enrichment in the data set on c-Abl (mouse) is 0.715; with Hck, 6.5; with Jak2 it was 2.33; in the data set on c-Src, 5.31; with EPHB1 it was 6.16; with EPHB2, 5.04. Besides, in the data set with FGFR3, the phosphorylation enrichment stood at 10.8. The figures for the SH2 binding enrichment with SHP2-C SH2, with Grb2 SH2 and with c-Src SH2 were 0.644, 0.95 and 2.56, respectively.
Take NTVLGYFIGCI [GARS1_Y408_R412C]: the phosphorylation enrichment in the data set on AncSZ was determined as 1.19; in the data set with MERTK, 0.381; in the data set with FGFR1, 0.457; with Fyn it was 0.491; in the data set on Fer (mouse), 0.598; with Fes, 1.31. Also, the phosphorylation enrichment in the data set with c-Abl (mouse) amounted to 0.826; in the data set with Hck, 0.467; in the data set with Jak2, 1.18; in the data set with c-Src, 0.465; with EPHB1, 0.653; with EPHB2 it was 0.63. Besides, the phosphorylation enrichment with FGFR3 turned out to be 0.828. Also, the SH2 binding enrichment in the data set with SHP2-C SH2 was 0.514; in the data set with Grb2 SH2, 0.906; with c-Src SH2, 0.438.
Turning to NTYEKYLEEEY [TF_Y669_G671E], the phosphorylation enrichment in the data set on AncSZ was determined as 1.6; with MERTK it was 0.563; in the data set with FGFR1, 0.553; with Fyn, 0.535; in the data set on Fer (mouse) it was 0.563; with Fes it was 1.93. Further, the phosphorylation enrichment with c-Abl (mouse) was determined as 1.27; with Hck it was 0.608; with Jak2, 1.6; with c-Src it was 0.9; with EPHB1, 0.802; with EPHB2 it was 0.686. In addition, the phosphorylation enrichment in the data set with FGFR3 amounted to 0.86. The SH2 binding enrichment with SHP2-C SH2 amounted to 0.607; with Grb2 SH2, 0.743; with c-Src SH2, 2.16.
For NVADHYRVYKP [ATP6V0D2_Y271_G272R], the phosphorylation enrichment in the data set with AncSZ came to 0.721; with MERTK, 0.426; with FGFR1, 0.489; in the data set with Fyn it was 0.501; in the data set on Fer (mouse) it was 0.433; in the data set with Fes it was 0.767. The phosphorylation enrichment in the data set with c-Abl (mouse) was 0.703; with Hck, 0.384; with Jak2, 0.561; in the data set on c-Src, 0.412; in the data set with EPHB1 it was 0.54; with EPHB2, 0.574. The phosphorylation enrichment with FGFR3 is 0.479. For the same sequence, the SH2 binding enrichment with SHP2-C SH2 was 0.517; with Grb2 SH2, 0.619; in the data set with c-Src SH2, 0.469.
Consider NVGGKYSFLKV [GRM3_Y478_YF], for which the phosphorylation enrichment stood at 0.608 in the data set on AncSZ; 0.456 in the data set with MERTK; 0.369 with FGFR1; 0.306 in the data set with Fyn; 0.357 with Fer (mouse); 0.739 in the data set with Fes. The phosphorylation enrichment with c-Abl (mouse) stood at 0.476; with Hck, 0.446; with Jak2 it was 0.663; with c-Src it was 0.392; with EPHB1 it was 0.472; with EPHB2, 0.378. Moreover, the phosphorylation enrichment with FGFR3 worked out at 0.434. For the same sequence, the SH2 binding enrichment with SHP2-C SH2 stood at 1.46; with Grb2 SH2, 1.02; with c-Src SH2, 0.976.
With NVTRKYTRQIL [MAP3K2_Y463], the phosphorylation enrichment in the data set on AncSZ was 0.363; in the data set with MERTK, 0.319; with FGFR1, 0.316; in the data set with Fyn it was 0.372; with Fer (mouse) it was 0.305; in the data set with Fes it was 0.411. The phosphorylation enrichment was 0.397 in the data set on c-Abl (mouse); 0.265 with Hck; 0.339 with Jak2; 0.373 in the data set with c-Src; 0.333 in the data set with EPHB1; 0.264 with EPHB2. Besides, in the data set with FGFR3, the phosphorylation enrichment was 0.353. Besides, the values for the SH2 binding enrichment in the data set with SHP2-C SH2, with Grb2 SH2 and in the data set with c-Src SH2 were 0.644, 0.853 and 0.477, respectively.
NYRPGYNNFYN [USH2A_Y467]: the phosphorylation enrichment in the data set with AncSZ was 0.697; in the data set with MERTK, 0.551; with FGFR1, 0.637; in the data set with Fyn, 0.567; in the data set with Fer (mouse), 0.711; with Fes, 0.705. The phosphorylation enrichment in the data set with c-Abl (mouse) was 0.514; in the data set with Hck it was 0.621; with Jak2 it was 0.651; with c-Src it was 0.516; in the data set with EPHB1, 0.616; in the data set with EPHB2 it was 0.602. The phosphorylation enrichment in the data set with FGFR3 was 0.606. Further, the SH2 binding enrichment was found to be 0.84 with SHP2-C SH2, 0.875 with Grb2 SH2 and 0.614 in the data set with c-Src SH2.
In the case of PAVGIYNDNIN [CDCP1_Y707], the phosphorylation enrichment was determined as 1.07 in the data set on AncSZ; 0.641 with MERTK; 0.612 with FGFR1; 1.29 in the data set with Fyn; 0.6 in the data set on Fer (mouse); 1.08 with Fes. The phosphorylation enrichment in the data set with c-Abl (mouse) came out at 0.71; with Hck it was 1.17; in the data set with Jak2, 0.925; in the data set with c-Src it was 1.12; with EPHB1, 0.806; in the data set with EPHB2, 0.685. In addition, in the data set with FGFR3, the phosphorylation enrichment turned out to be 0.575. The figures for the SH2 binding enrichment with SHP2-C SH2, with Grb2 SH2 and with c-Src SH2 were 0.729, 0.749 and 0.481, respectively.
